Broadly, the Kd is the equilibrium constant for the complex coming apart.

B1: IL-2Rαβγ complex (complex)
chain 1: ELCDDDPPEIPHATFKAMAYKEGTMLNCECKRGFRRIKSGSLYMLCTGNSSHSSWDNQCQCTSSATRNTTKQVTPQPEEQKERKTTEMQSPMQPVDQASLPGHCREPPPWENEATERIYHFVVGQMVYYQCVQGYRALHRGPAESVCKMTHGKTRWTQPQLICTGEMETSQFPGEEKPQASPEGRPESETSCLVTTTDFQIQTEMAATMETSIFTTEYQ
chain 2: AVNGTSQFTCFYNSRANISCVWSQDGALQDTSCQVHAWPDRRRWNQTCELLPVSQASWACNLILGAPDSQKLTTVDIVTLRVLCREGVRWRVMAIQDFKPFENLRLMAPISLQVVHVETHRCNISWEISQASHYFERHLEFEARTLSPGHTWEEAPLLTLKQKQEWICLETLTPDTQYEFQVRVKPLQGEFTTWSPWSQPLAFRTKPAALGKDT
chain 3: LNTTILTPNGNEDTTADFFLTTMPTDSLSVSTLPLPEVQCFVFNVEYMNCTWNSSSEPQPTNLTLHYWYKNSDNDKVQKCSHYLFSEEITSGCQLQKKEIHLYQTFVVQLQDPREPRRQATQMLKLQNLVIPWAPENLTLHKLSESQLELNWNNRFLNHCLEHLVQYRTDWDHSWTEQSVDYRHKFSLPSVDGQKRYTFRVRSRFNPLCGSAQHWSEWSHPIHWGSNTSKENPFLFALEA
B2: IL-2Rβ (receptor)
chain: AVNGTSQFTCFYNSRANISCVWSQDGALQDTSCQVHAWPDRRRWNQTCELLPVSQASWACNLILGAPDSQKLTTVDIVTLRVLCREGVRWRVMAIQDFKPFENLRLMAPISLQVVHVETHRCNISWEISQASHYFERHLEFEARTLSPGHTWEEAPLLTLKQKQEWICLETLTPDTQYEFQVRVKPLQGEFTTWSPWSQPLAFRTKPAALGKDT
B3: IL-2Rβγ complex (complex)
chain 1: AVNGTSQFTCFYNSRANISCVWSQDGALQDTSCQVHAWPDRRRWNQTCELLPVSQASWACNLILGAPDSQKLTTVDIVTLRVLCREGVRWRVMAIQDFKPFENLRLMAPISLQVVHVETHRCNISWEISQASHYFERHLEFEARTLSPGHTWEEAPLLTLKQKQEWICLETLTPDTQYEFQVRVKPLQGEFTTWSPWSQPLAFRTKPAALGKDT
chain 2: LNTTILTPNGNEDTTADFFLTTMPTDSLSVSTLPLPEVQCFVFNVEYMNCTWNSSSEPQPTNLTLHYWYKNSDNDKVQKCSHYLFSEEITSGCQLQKKEIHLYQTFVVQLQDPREPRRQATQMLKLQNLVIPWAPENLTLHKLSESQLELNWNNRFLNHCLEHLVQYRTDWDHSWTEQSVDYRHKFSLPSVDGQKRYTFRVRSRFNPLCGSAQHWSEWSHPIHWGSNTSKENPFLFALEA
B4: IL-2Rα (receptor)
chain: ELCDDDPPEIPHATFKAMAYKEGTMLNCECKRGFRRIKSGSLYMLCTGNSSHSSWDNQCQCTSSATRNTTKQVTPQPEEQKERKTTEMQSPMQPVDQASLPGHCREPPPWENEATERIYHFVVGQMVYYQCVQGYRALHRGPAESVCKMTHGKTRWTQPQLICTGEMETSQFPGEEKPQASPEGRPESETSCLVTTTDFQIQTEMAATMETSIFTTEYQ
B5: IL-2Rαβγ complex (complex)
chain 1: ELCDDDPPEIPHATFKAMAYKEGTMLNCECKRGFRRIKSGSLYMLCTGNSSHSSWDNQCQCTSSATRNTTKQVTPQPEEQKERKTTEMQSPMQPVDQASLPGHCREPPPWENEATERIYHFVVGQMVYYQCVQGYRALHRGPAESVCKMTHGKTRWTQPQLICTGEMETSQFPGEEKPQASPEGRPESETSCLVTTTDFQIQTEMAATMETSIFTTEYQVAVAGCVFLLISVLLLSGLTWQRRQRKSRRTI
chain 2: AVNGTSQFTCFYNSRANISCVWSQDGALQDTSCQVHAWPDRRRWNQTCELLPVSQASWACNLILGAPDSQKLTTVDIVTLRVLCREGVRWRVMAIQDFKPFENLRLMAPISLQVVHVETHRCNISWEISQASHYFERHLEFEARTLSPGHTWEEAPLLTLKQKQEWICLETLTPDTQYEFQVRVKPLQGEFTTWSPWSQPLAFRTKPAALGKDTIPWLGHLLVGLSGAFGFIILVYLLINCRNTGPWLKKVLKCNTPDPSKFFSQLSSEHGGDVQKWLSSPFPSSSFSPGGLAPEISPLEVLERDKVTQLLLQQDKVPEPASLSSNHSLTSCFTNQGYFFFHLPDALEIEACQVYFTYDPYSEEDPDEGVAGAPTGSSPQPLQPLSGEDDAYCTFPSRDDLLLFSPSLLGGPSPPSTAPGGSGAGEERMPPSLQERVPRDWDPQPLGPPTPGVPDLVDFQPPPELVLREAGEEVPDAGPREGVSFPWSRPPGQGEFRALNARLPLNTDAYLSLQELQGQDPTHLV
chain 3: LNTTILTPNGNEDTTADFFLTTMPTDSLSVSTLPLPEVQCFVFNVEYMNCTWNSSSEPQPTNLTLHYWYKNSDNDKVQKCSHYLFSEEITSGCQLQKKEIHLYQTFVVQLQDPREPRRQATQMLKLQNLVIPWAPENLTLHKLSESQLELNWNNRFLNHCLEHLVQYRTDWDHSWTEQSVDYRHKFSLPSVDGQKRYTFRVRSRFNPLCGSAQHWSEWSHPIHWGSNTSKENPFLFALEAVVISVGSMGLIISLLCVYFWLERTMPRIPTLKNLEDLVTEYHGNFSAWSGVSKGLAESLQPDYSERLCLVSEIPPKGGALGEGPGASPCNQHSPYWAPPCYTLKPET
B6: IL-2Rβγ complex (complex)
chain 1: AVNGTSQFTCFYNSRANISCVWSQDGALQDTSCQVHAWPDRRRWNQTCELLPVSQASWACNLILGAPDSQKLTTVDIVTLRVLCREGVRWRVMAIQDFKPFENLRLMAPISLQVVHVETHRCNISWEISQASHYFERHLEFEARTLSPGHTWEEAPLLTLKQKQEWICLETLTPDTQYEFQVRVKPLQGEFTTWSPWSQPLAFRTKPAALGKDTIPWLGHLLVGLSGAFGFIILVYLLINCRNTGPWLKKVLKCNTPDPSKFFSQLSSEHGGDVQKWLSSPFPSSSFSPGGLAPEISPLEVLERDKVTQLLLQQDKVPEPASLSSNHSLTSCFTNQGYFFFHLPDALEIEACQVYFTYDPYSEEDPDEGVAGAPTGSSPQPLQPLSGEDDAYCTFPSRDDLLLFSPSLLGGPSPPSTAPGGSGAGEERMPPSLQERVPRDWDPQPLGPPTPGVPDLVDFQPPPELVLREAGEEVPDAGPREGVSFPWSRPPGQGEFRALNARLPLNTDAYLSLQELQGQDPTHLV
chain 2: LNTTILTPNGNEDTTADFFLTTMPTDSLSVSTLPLPEVQCFVFNVEYMNCTWNSSSEPQPTNLTLHYWYKNSDNDKVQKCSHYLFSEEITSGCQLQKKEIHLYQTFVVQLQDPREPRRQATQMLKLQNLVIPWAPENLTLHKLSESQLELNWNNRFLNHCLEHLVQYRTDWDHSWTEQSVDYRHKFSLPSVDGQKRYTFRVRSRFNPLCGSAQHWSEWSHPIHWGSNTSKENPFLFALEAVVISVGSMGLIISLLCVYFWLERTMPRIPTLKNLEDLVTEYHGNFSAWSGVSKGLAESLQPDYSERLCLVSEIPPKGGALGEGPGASPCNQHSPYWAPPCYTLKPET

The first assay concerns the target Wild type IL-2 (de-alanine-1, C58S, C125S) (UniProt P60568 21-153, de-alanine-1 | C58S | C125S). Kind of assay: SPR. On the technique in general: Surface plasmon resonance follows binding to a sensor surface in real time, without labels.
Regarding B1, the Kd came out at 0.0423 nM.
B2 returned a Kd of 89.1 nM.
With B3, the Kd came out at 0.463 nM.
With B4, the Kd is 47.5 nM.

The target of the next assay is IL-2 variant 012. Briefly: SPR.
Take B5: the Kd was determined as 0.575 nM.
Same read-out and setting: to B6 belongs 0.467 nM.
